# Laboratory results as given in paper PMC3915903 (Cell Research, 2013).
# Residue numbers refer to the chain shown, from its start. Numbers in names are those of the source.
# B1: Human PTPA, wild-type (natural protein)
# chain: MAEGERQPPPDSSEEAPPATQNFIIPKKEIHTVPDMGKWKRSQAYADYIGFILTLNEGVKGKKLTFEYRVSEAIEKLVALLNTLDRWIDETPPVDQPSRFGNKAYRTWYAKLDEEAENLVATVVPTHLAAAVPEVAVYLKESVGNSTRIDYGTGHEAAFAAFLCCLCKIGVLRVDDQIAIVFKVFNRYLEVMRKLQKTYRMEPAGSQGVWGLDDFQFLPFIWGSSQLIDHPYLEPRHFVDEKAVNENHKDYMFLECILFITEMKTGPFAEHSNQLWNISAVPSWSKVNQGLIRMYKAECLEKFPVIQHFKFGSLLPIHPVTSG
# B2: PTPA F100D (natural protein)
# chain: B1 chain with F100D
# B3: PTPA M294K (natural protein)
# chain: B1 chain with M294K
# B4: PTPA R293E (natural protein)
# chain: B1 chain with R293E
# B5: PTPA V209D (natural protein)
# chain: B1 chain with V209D
# B6: PTPA V281A (natural protein)
# chain: B1 chain with V281A
# Biological target: GST-tagged PP2A core enzyme (AC heterodimer) (human, UniProt P30153;P67775)
# Sequence (P30153 whole entry, chain 1 of 2): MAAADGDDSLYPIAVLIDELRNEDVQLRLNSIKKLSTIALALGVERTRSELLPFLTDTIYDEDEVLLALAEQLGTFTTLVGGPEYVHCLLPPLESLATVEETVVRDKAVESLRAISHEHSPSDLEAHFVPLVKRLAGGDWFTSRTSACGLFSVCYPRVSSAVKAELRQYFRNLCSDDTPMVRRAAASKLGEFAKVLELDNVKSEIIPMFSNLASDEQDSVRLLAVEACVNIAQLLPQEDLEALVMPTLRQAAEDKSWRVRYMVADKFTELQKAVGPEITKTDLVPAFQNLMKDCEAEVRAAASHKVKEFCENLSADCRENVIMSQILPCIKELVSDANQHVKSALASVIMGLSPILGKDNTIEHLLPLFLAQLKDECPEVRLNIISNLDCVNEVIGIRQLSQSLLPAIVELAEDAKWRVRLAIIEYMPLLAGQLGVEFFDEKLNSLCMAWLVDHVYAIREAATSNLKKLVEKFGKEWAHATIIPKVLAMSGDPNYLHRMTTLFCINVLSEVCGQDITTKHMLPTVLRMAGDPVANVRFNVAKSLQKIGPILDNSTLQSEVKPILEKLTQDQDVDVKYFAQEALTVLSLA
# Sequence (P67775 whole entry, chain 2 of 2): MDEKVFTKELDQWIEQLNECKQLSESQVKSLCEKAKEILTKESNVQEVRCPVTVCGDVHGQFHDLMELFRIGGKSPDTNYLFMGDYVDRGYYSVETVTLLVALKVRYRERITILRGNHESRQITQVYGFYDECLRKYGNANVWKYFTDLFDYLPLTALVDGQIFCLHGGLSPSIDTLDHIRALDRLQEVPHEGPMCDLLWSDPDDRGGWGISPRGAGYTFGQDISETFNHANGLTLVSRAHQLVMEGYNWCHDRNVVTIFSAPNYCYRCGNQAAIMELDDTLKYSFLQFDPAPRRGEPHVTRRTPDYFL
# Experiment: pull-down
row,Binder,binding result
1,B1,binds
2,B2,binds
3,B3,binds
4,B4,binds
5,B5,binds
6,B6,binds
